Biological target: A2A adenosine receptor A2AAR N154Q (residues 1-316) (Homo sapiens, UniProt P29274, N154Q)
Assay: SPR

Sequence of A2A adenosine receptor A2AAR N154Q (residues 1-316) (P29274 1-316 N154Q): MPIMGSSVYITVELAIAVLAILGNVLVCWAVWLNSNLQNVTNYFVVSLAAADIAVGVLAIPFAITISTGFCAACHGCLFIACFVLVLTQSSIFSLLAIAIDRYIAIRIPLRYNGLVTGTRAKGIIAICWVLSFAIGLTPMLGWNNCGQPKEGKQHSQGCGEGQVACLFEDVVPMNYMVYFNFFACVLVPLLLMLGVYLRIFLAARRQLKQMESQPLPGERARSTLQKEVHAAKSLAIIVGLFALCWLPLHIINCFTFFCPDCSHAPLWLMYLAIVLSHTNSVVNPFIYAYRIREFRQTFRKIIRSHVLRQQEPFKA

Kd: 4.4 nM
B1: Fab2838, Fab fragment of mouse monoclonal antibody IgG2838 (Fab, V domains shown)
VH: EVQLQQSGAELVKPGSSVKISCKTSGDSFTAYNMNWVKQSHGKSLEWIGNINPYYGSTRYNQKFKGKATLTVDKSSSTAYIQLNSLTSEDSAVYYCAREGNYYDGGSVRYFDYWGQGTTLTVSS
VL: DIVMTQSPASLSASVGDTVTITCRASEFIYSSLTWYQQKQGGSPQLLVYAATNLADAVPSRFSGSGSGTQFSLKINRLQPEDFGTYYCQHFYGSTWAFGGGTKLEIK
